We go through three proteins from article PMC9992347 (Molecular cell, 2023).

Data set [1] concerns the molecule itself. The experiment in a line: cryo-EM structure.
Data set [2] concerns the molecule itself. In words: small-angle X-ray scattering.

B1: SPOP^1-374 W22R (natural protein, human, UniProt O43791 1-374, looked up)
chain: MSRVPSPPPPAEMSSGPVAESRCYTQIKVVKFSYMWTINNFSFCREEMGEVIKSSTFSSGANDKLKWCLRVNPKGLDEESKDYLSLYLLLVSCPKSEVRAKFKFSILNAKGEETKAMESQRAYRFVQGKDWGFKKFIRRDFLLDEANGLLPDDKLTLFCEVSVVQDSVNISGQNTMNMVKVPECRLADELGGLWENSRFTDCCLCVAGQEFQAHKAILAARSPVFSAMFEHEMEESKKNRVEINDVEPEVFKEMMCFIYTGKAPNLDKMADDLLAAADKYALERLKVMCEDALCSNLSVENAAEILILADLHSADQLKTQAVDFINYHASDVLETSGWKSMVVSHPHLVAEAYRSLASAQCPFLGPPRKRLKQS
For the protein B1, the binding result in data set [1] was “binds”.

B2: SPOP^1-374 E47K (natural protein, human, UniProt O43791 1-374, looked up)
chain: MSRVPSPPPPAEMSSGPVAESWCYTQIKVVKFSYMWTINNFSFCREKMGEVIKSSTFSSGANDKLKWCLRVNPKGLDEESKDYLSLYLLLVSCPKSEVRAKFKFSILNAKGEETKAMESQRAYRFVQGKDWGFKKFIRRDFLLDEANGLLPDDKLTLFCEVSVVQDSVNISGQNTMNMVKVPECRLADELGGLWENSRFTDCCLCVAGQEFQAHKAILAARSPVFSAMFEHEMEESKKNRVEINDVEPEVFKEMMCFIYTGKAPNLDKMADDLLAAADKYALERLKVMCEDALCSNLSVENAAEILILADLHSADQLKTQAVDFINYHASDVLETSGWKSMVVSHPHLVAEAYRSLASAQCPFLGPPRKRLKQS
B2: the binding result in data set [1] is listed as “binds”.

B3: SPOP^1-374 W131G (natural protein, human, UniProt O43791 1-374, looked up)
chain: MSRVPSPPPPAEMSSGPVAESWCYTQIKVVKFSYMWTINNFSFCREEMGEVIKSSTFSSGANDKLKWCLRVNPKGLDEESKDYLSLYLLLVSCPKSEVRAKFKFSILNAKGEETKAMESQRAYRFVQGKDGGFKKFIRRDFLLDEANGLLPDDKLTLFCEVSVVQDSVNISGQNTMNMVKVPECRLADELGGLWENSRFTDCCLCVAGQEFQAHKAILAARSPVFSAMFEHEMEESKKNRVEINDVEPEVFKEMMCFIYTGKAPNLDKMADDLLAAADKYALERLKVMCEDALCSNLSVENAAEILILADLHSADQLKTQAVDFINYHASDVLETSGWKSMVVSHPHLVAEAYRSLASAQCPFLGPPRKRLKQS
Take B3: the binding result in data set [2] is recorded as “binds”.
